From the Human Domainome abundance scans (Beltran et al. 2025)
± gives the uncertainty stated by the source.

B1: COUP transcription factor 1, residues 83 to 159; numbered along this chain, P10589 (parent)
chain: HIECVVCGDKSSGKHYGQFTCEGCKSFFKRSVRRNLTYTCRANRNCPIDQHHRNQCQYCRLKKCLKVGMRREAVQRG

Variants of: B1
Assay: abundance fitness (aPCA) (normalised: wild type 0, dead -1); higher = more abundant; growth selection in yeast, the domain comes from the species named
Conditions: Homo sapiens

Row | Variant | abundance fitness
1 | C7I | -0.912 ± 0.41
2 | C7W | -0.821 ± 0.14
3 | C7L | -0.843 ± 0.15
4 | C7K | -0.509 ± 0.12
5 | C7V | -0.597 ± 0.071
6 | C7P | -1.17 ± 0.3
7 | C7T | -0.95 ± 0.25
8 | C7D | -0.867 ± 0.21
9 | C7E | -0.659 ± 0.1
10 | C7R | -0.802 ± 0.093
11 | C7S | -0.803 ± 0.11
12 | C7N | -0.562 ± 0.18
13 | C7Y | -0.268 ± 0.2
14 | C7A | -0.692 ± 0.1
15 | C7M | -0.84 ± 0.24
16 | C7G | -0.733 ± 0.069
17 | C7F | -0.942 ± 0.38
18 | E3T | -0.058 ± 0.078
19 | E3V | -0.536 ± 0.057
20 | E3H | -0.15 ± 0.17
21 | E3C | -0.072 ± 0.083
22 | E3F | -0.173 ± 0.35
23 | E3A | -0.01 ± 0.044
24 | E3S | -0.052 ± 0.064

Row | Variant | abundance fitness
25 | E3K | -0.226 ± 0.083
26 | E3I | -0.108 ± 0.12
27 | E3R | -0.408 ± 0.049
28 | E3P | -0.279 ± 0.086
29 | E3G | -0.402 ± 0.04
30 | E3N | -0.222 ± 0.14
31 | E3W | -0.319 ± 0.066
32 | E3D | 0.006 ± 0.063
33 | E3M | -0.07 ± 0.084
34 | G8M | -0.078 ± 0.12
35 | G8V | -0.791 ± 0.17
36 | G8S | 0.077 ± 0.073
37 | G8R | 0.014 ± 0.058
38 | G8H | -0.22 ± 0.18
39 | G8Q | 0.146 ± 0.1
40 | G8D | 0.177 ± 0.12
41 | G8N | -0.045 ± 0.49
42 | G8W | -0.218 ± 0.11
43 | G8K | 0.165 ± 0.15
44 | G8C | -0.182 ± 0.16
45 | G8T | -0.237 ± 0.19
46 | G8L | 0.042 ± 0.076
47 | G8A | 0.016 ± 0.061
48 | K10G | -0.114 ± 0.037

Row | Variant | abundance fitness
49 | K10M | -0.067 ± 0.059
50 | K10E | -0.104 ± 0.06
51 | K10D | 0.16 ± 0.077
52 | K10V | -0.235 ± 0.048
53 | K10Y | 0.045 ± 0.098
54 | K10P | 0.051 ± 0.071
55 | K10L | -0.313 ± 0.056
56 | K10A | -0.332 ± 0.06
57 | K10F | -0.029 ± 0.11
58 | K10S | -0.153 ± 0.051
59 | K10Q | 0.022 ± 0.074
60 | K10T | 0.056 ± 0.06
61 | K10H | -0.288 ± 0.21
62 | K10C | -0.105 ± 0.075
63 | K10W | -0.233 ± 0.053
64 | K10R | -0.214 ± 0.049
65 | S11C | 0.182 ± 0.071
66 | S11H | 0.314 ± 0.3
67 | S11M | -0.101 ± 0.099
68 | S11G | -0.071 ± 0.033
69 | S11A | -0.184 ± 0.056
70 | S11W | -0.236 ± 0.064
71 | S11F | 0.085 ± 0.13
72 | S11Q | 0.01 ± 0.085

Row | Variant | abundance fitness
73 | S11V | -0.399 ± 0.053
74 | S11L | -0.281 ± 0.068
75 | S11Y | 0.177 ± 0.15
76 | S11R | -0.377 ± 0.06
77 | S11D | -0.28 ± 0.15
78 | S11E | -0.314 ± 0.075
79 | S11T | -0.044 ± 0.082
80 | S11N | -0.155 ± 0.18
81 | C4K | -0.775 ± 0.18
82 | C4G | -0.731 ± 0.11
83 | C4D | -0.724 ± 0.13
84 | C4P | -0.833 ± 0.14
85 | C4M | -0.521 ± 0.12
86 | C4W | -0.965 ± 0.28
87 | C4Y | -0.9 ± 0.12
88 | C4I | -0.998 ± 0.14
89 | C4V | -0.672 ± 0.078
90 | C4Q | -1.25 ± 0.32
91 | C4L | -1.05 ± 0.14
92 | C4T | -0.635 ± 0.11
93 | C4S | -0.515 ± 0.062
94 | C4H | -1.23 ± 0.25
95 | C4A | -1.04 ± 0.14
96 | C4N | -1.17 ± 0.23

Row | Variant | abundance fitness
97 | C4F | -0.939 ± 0.13
98 | D9T | -0.047 ± 0.092
99 | D9S | -0.02 ± 0.075
100 | D9R | -0.018 ± 0.067
101 | D9Q | 0.104 ± 0.12
102 | D9C | -0.625 ± 0.46
103 | D9K | -0.083 ± 0.16
104 | D9Y | -0.381 ± 0.2
105 | D9W | -0.14 ± 0.076
106 | D9F | -0.045 ± 0.29
107 | D9P | -0.863 ± 0.24
108 | D9V | -0.304 ± 0.072
109 | D9I | -0.203 ± 0.17
110 | D9N | -0.099 ± 0.15
111 | D9M | 0.065 ± 0.081
112 | D9G | -0.057 ± 0.049
113 | D9H | -0.636 ± 0.27
114 | D9L | -0.234 ± 0.084
115 | D9A | -0.128 ± 0.066
116 | I2Y | 0.237 ± 0.32
117 | I2M | -0.078 ± 0.1
118 | I2R | -0.413 ± 0.094
119 | I2N | 0.05 ± 0.1
120 | I2V | -0.648 ± 0.14

Row | Variant | abundance fitness
121 | I2G | -0.927 ± 0.17
122 | I2W | -0.502 ± 0.17
123 | I2K | -0.329 ± 0.22
124 | I2Q | -0.714 ± 0.41
125 | V6M | -1.06 ± 0.36
126 | V6Q | -0.802 ± 0.29
127 | V6E | -0.836 ± 0.13
128 | V6G | -0.807 ± 0.091
129 | V6T | -0.743 ± 0.15
130 | V6W | -0.545 ± 0.11
131 | V6D | -0.736 ± 0.16
132 | V6P | -0.705 ± 0.19
133 | V6S | -0.819 ± 0.14
134 | V6I | -0.074 ± 0.11
135 | V6L | -0.889 ± 0.15
136 | V6R | -0.974 ± 0.13
137 | V6F | -0.581 ± 0.28
138 | V6A | -0.458 ± 0.079
139 | V6K | -1.09 ± 0.38
140 | V6Y | -0.439 ± 0.31
141 | V5T | 0.104 ± 0.11
142 | V5C | -0.027 ± 0.13
143 | V5D | -0.081 ± 0.13
144 | V5I | 0.314 ± 0.12

Row | Variant | abundance fitness
145 | V5F | 0.199 ± 0.16
146 | V5P | 0.381 ± 0.32
147 | V5E | -0.042 ± 0.1
148 | V5N | 0.152 ± 0.2
149 | V5H | 0.185 ± 0.19
150 | V5L | 0.192 ± 0.093
151 | V5Q | 0.252 ± 0.2
152 | V5R | 0.295 ± 0.062
153 | V5W | 0.003 ± 0.09
154 | V5K | 0.31 ± 0.11
155 | V5S | 0.149 ± 0.073
156 | V5G | 0.012 ± 0.056
157 | V5A | 0.228 ± 0.084
158 | V5Y | 0.393 ± 0.15
159 | S12C | -0.578 ± 0.14
160 | S12L | -0.247 ± 0.049
161 | S12A | -0.018 ± 0.05
162 | S12I | -0.027 ± 0.068
163 | S12M | -0.113 ± 0.063
164 | S12G | 0.021 ± 0.048
165 | S12E | 0.1 ± 0.06
166 | S12H | -0.096 ± 0.088
167 | S12K | -0.194 ± 0.074
